Data on two molecules can be found in patent publication US20190300897A1 (INSTITUTE OF GENETICS AND DEVELOPMENTAL BIOLOGY CHINESE …, published 2019).

This assay deals with T1, MBP-DA2 (Arabidopsis, UniProt Q93YV5 1-401).
T1 construct: Used as bacterial lysate and held on amylose resin; also called DA2 expressed as a MBP fusion protein; DA2-MBP
T1 sequence: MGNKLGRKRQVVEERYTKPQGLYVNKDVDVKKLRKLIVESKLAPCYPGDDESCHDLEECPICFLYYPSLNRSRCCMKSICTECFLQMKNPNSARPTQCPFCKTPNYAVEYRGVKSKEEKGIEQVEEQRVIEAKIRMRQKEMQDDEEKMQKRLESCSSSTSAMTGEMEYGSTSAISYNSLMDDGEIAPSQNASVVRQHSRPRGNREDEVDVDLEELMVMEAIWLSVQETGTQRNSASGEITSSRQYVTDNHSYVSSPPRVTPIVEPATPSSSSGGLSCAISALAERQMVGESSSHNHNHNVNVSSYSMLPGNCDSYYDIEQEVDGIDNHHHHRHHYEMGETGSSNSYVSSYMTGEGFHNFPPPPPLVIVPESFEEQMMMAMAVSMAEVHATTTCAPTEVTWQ
Put plainly: in vitro pull-down on amylose resin, anti-GST immunoblot. On the procedure:
To test protein-protein interaction, bacterial lysates containing approximately 15 μg of MBP-DA2 fusion proteins were combined with lysates containing approximately 30 μg of GST-DA1, GST-DA1R358K, GST-DA1-UIM, GST-DA1-LIM, GST-DA1-LIM+C or GST-DA1-C fusion proteins. 20 μl amylose resin (New England Biolabs) was added into each combined solution with continued rocking at 4° C. for 1 hour. Beads were washed […] with TGH buffer, and the isolated proteins were separated on a 10% SDS-polyactyamide gel and detected by western blot analysis with anti-GST (Abmart) and anti-MBP antibodies (Abmart), respectively.
On the technique in general: In western blotting, separated proteins are transferred to a membrane and probed.

B1: GST-DA1-LIM (other)
chain: RICAGCNMEIGHGRFLNCLNSLWHPECFRCYGCSQPISEYEFSTSGNYPFHKACYRERYHP
notes: Only the LIM domain was in the assay; not shown: glutathione S-transferase (GST) tag from vector pGEX-4T-1
B1: the binding result is listed as “no binding”.

B2: GST-DA1-UIM (other)
chain: MGWFNKIFKGSNQRLRVGNNKHNHNVYYDNYPTASHDDEPSAADTDADNDEPHHTQEPSTSEDNTSNDQENEDIDRAIALSLLEENQEQTSISGKYSMPVDEDEQLARALQESMVVGNSPRHKSGSTYDNGNAYGAGDLYGNGHMYGGGNVYANGDIYYPRPITFQMDF
notes: Only the part holding the two UIM domains was in the assay; not shown: glutathione S-transferase (GST) tag from vector pGEX-4T-1
In the case of B2, the binding result is “no binding”.
